Reference: paper PMC12106642 (Nature Communications, 2025)
Where “and” joins values, the source holds several entries; their conditions need not be identical. Identical values can stand only once.

Molecular target: the molecule itself
Test: high-speed atomic force microscopy

B1: Human Recombinant ADAR Protein NM_001025107 (ADAR1-p110) (enzyme, UniProt P55265-5 1-931, looked up)
chain: MAEIKEKICDYLFNVSDSSALNLAKNIGLTKARDINAVLIDMERQGDVYRQGTTPPIWHLTDKKRERMQIKRNTNSVPETAPAAIPETKRNAEFLTCNIPTSNASNNMVTTEKVENGQEPVIKLENRQEARPEPARLKPPVHYNGPSKAGYVDFENGQWATDDIPDDLNSIRAAPGEFRAIMEMPSFYSHGLPRCSPYKKLTECQLKNPISGLLEYAQFASQTCEFNMIEQSGPPHEPRFKFQVVINGREFPPAEAGSKKVAKQDAAMKAMTILLEEAKAKDSGKSEESSHYSTEKESEKTAESQTPTPSATSFFSGKSPVTTLLECMHKLGNSCEFRLLSKEGPAHEPKFQYCVAVGAQTFPSVSAPSKKVAKQMAAEEAMKALHGEATNSMASDNQPEGMISESLDNLESMMPNKVRKIGELVRYLNTNPVGGLLEYARSHGFAAEFKLVDQSGPPHEPKFVYQAKVGGRWFPAVCAHSKKQGKQEAADAALRVLIGENEKAERMGFTEVTPVTGASLRRTMLLLSRSPEAQPKTLPLTGSTFHDQIAMLSHRCFNTLTNSFQPSLLGRKILAAIIMKKDSEDMGVVVSLGTGNRCVKGDSLSLKGETVNDCHAEIISRRGFIRFLYSELMKYNSQTAKDSIFEPAKGGEKLQIKKTVSFHLYISTAPCGDGALFDKSCSDRAMESTESRHYPVFENPKQGKLRTKVENGEGTIPVESSDIVPTWDGIRLGERLRTMSCSDKILRWNVLGLQGALLTHFLQPIYLKSVTLGYLFSQGHLTRAICCRVTRDGSAFEDGLRHPFIVNHPKVGRVSIYDSKRQSGKTKETSVNWCLADGYDLEILDGTRGTVDGPRNELSRVSKKNIFLLFKKLCSFRYRRDLLRLSYGEAKKAARDYETAKNYFKKGLKDMGYGNWISKPQEEKNFYLCPV
B1 was tested, and the “stoichiometry N” value was 2 and 3 and 4.
